T1: DNA2 D277A (human, UniProt P51530 1-1060, D277A)
T1 sequence: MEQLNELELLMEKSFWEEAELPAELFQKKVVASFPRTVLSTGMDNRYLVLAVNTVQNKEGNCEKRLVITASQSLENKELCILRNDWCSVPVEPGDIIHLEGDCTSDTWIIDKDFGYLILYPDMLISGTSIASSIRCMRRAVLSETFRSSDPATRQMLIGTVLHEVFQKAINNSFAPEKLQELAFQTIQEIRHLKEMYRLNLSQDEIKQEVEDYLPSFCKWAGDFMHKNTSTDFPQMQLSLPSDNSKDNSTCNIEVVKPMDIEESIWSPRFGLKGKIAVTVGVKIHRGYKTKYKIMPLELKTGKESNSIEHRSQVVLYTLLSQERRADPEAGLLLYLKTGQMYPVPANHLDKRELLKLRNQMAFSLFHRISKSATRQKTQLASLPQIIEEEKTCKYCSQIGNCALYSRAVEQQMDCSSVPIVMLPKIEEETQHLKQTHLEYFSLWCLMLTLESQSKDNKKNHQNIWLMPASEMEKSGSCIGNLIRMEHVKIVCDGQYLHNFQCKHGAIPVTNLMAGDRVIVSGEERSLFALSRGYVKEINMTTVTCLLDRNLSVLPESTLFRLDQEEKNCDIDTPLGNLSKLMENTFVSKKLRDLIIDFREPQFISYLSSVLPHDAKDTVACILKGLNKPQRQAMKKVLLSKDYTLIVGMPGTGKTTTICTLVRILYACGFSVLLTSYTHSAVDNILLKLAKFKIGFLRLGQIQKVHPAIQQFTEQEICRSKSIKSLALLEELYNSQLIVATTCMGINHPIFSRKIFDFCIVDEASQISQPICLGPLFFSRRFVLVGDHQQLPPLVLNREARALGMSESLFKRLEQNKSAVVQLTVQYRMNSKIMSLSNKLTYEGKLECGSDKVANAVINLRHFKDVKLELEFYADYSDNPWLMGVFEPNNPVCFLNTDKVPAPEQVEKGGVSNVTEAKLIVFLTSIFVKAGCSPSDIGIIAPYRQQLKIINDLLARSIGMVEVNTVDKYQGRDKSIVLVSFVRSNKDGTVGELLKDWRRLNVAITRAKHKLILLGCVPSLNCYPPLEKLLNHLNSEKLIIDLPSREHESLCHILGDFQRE


Legend:
DNA2 D277A [1] = target: T1, DNA2 D277A; assay: EMSA; similar affinity as WT; EMSA: 25 mM Tris-HCl pH 8.0, 0.1 mg/ml BSA, 5 mM EDTA, with or without 1 mM DTT, 30 min on ice; 4-5 nM FAM-DNA or 1 nM 32P-DNA; details: protein: recombinant; tags: FLAG; 5' flap 32 nt on strand 1; 1:2 and 2:3 paired
DNA2 D277A [2] = target: T1, DNA2 D277A; assay: EMSA; EMSA: 25 mM Tris-HCl pH 8.0, 0.1 mg/ml BSA, 5 mM EDTA, with or without 1 mM DTT, 30 min on ice; 4-5 nM FAM-DNA or 1 nM 32P-DNA; details: protein: recombinant; tags: FLAG; label: 3' 32P cordycepin on X04; fork 1:2, 5' arm 32 nt, 3' arm 30 nt

| Binder | binding result (DNA2 D277A [1]) | binding result (DNA2 D277A [2]) |
| --- | --- | --- |
| 5' flap (FAM) (mixed) DNA 1: ATCGATAGTCGGATCCTCTAGACAGCTCCATGTAGCAAGGCACTGGTAGAATTCGGCAGCGT DNA 2: GACGCTGCCGAATTCTACCAGTGCCTTGCTAGGACATCTTTGCCCACCTGCAGGTTCACCC DNA 3: TGGGTGAACCTGCAGGTGGGCAAAGATGTCC | binds | – |
| Y-structure (32P) (mixed) DNA 1: ATCGATAGTCGGATCCTCTAGACAGCTCCATGTAGCAAGGCACTGGTAGAATTCGGCAGCGT DNA 2: GACGCTGCCGAATTCTACCAGTGCCTTGCTAGGACATCTTTGCCCACCTGCAGGTTCACCC | – | binds |

Source: article PMC7311471, “The iron–sulphur cluster in human DNA2 is required for all biochemical activities of DNA2”
